In US6475744 (GENERAL HOSPITAL CORPORATION A MASSACHUSETTS, dated 2002):

B1: human (h)MOP4 (other, UniProt Q99743 1-824, looked up)
chain: MDEDEKDRAKRASRNKSEKKRRDQFNVLIKELSSMLPGNTRKMDKTTVLEKVIGFLQKHNEVSAQTEICDIQQDWKPSFLSNEEFTQLMLEALDGFIIAVTTDGSIIYVSDSITPLLGHLPSDVMDQNLLNFLPEQEHSEVYKILSSHMLVTDSPSPEYLKSDSDLEFYCHLLRGSLNPKEFPTYEYIKFVGNFRSYNNVPSPSCNGFDNTLSRPCRVPLGKEVCFIATVRLATPQFLKEMCIVDEPLEEFTSRHSLEWKFLFLDHRAPPIIGYLPFEVLGTSGYDYYHIDDLELLARCHQHLMQFGKGKSCCYRFLTKGQQWIWLQTHYYITYHQWNSKPEFIVCTHSVVSYADVRVERRQELALEDPPSEALHSSALKDKGSSLEPRQHFNTLDVGASGLNTSHSPSASSRSSHKSSHTAMSEPTSTPTKLMAEASTPALPRSATLPQELPVPGLSQAATMPAPLPSPSSCDLTQQLLPQTVLQSTPAPMAQFSAQFSMFQTIKDQLEQRTRILQANIRWQQEELHKIQEQLCLVQDSNVQMFLQQPAVSLSFSSTQRPEAQQQLQQRSAAVTQPQLGAGPQLPGQISSAQVTSQHLLRESSVISTQGPKPMRSSQLMQSSGRSGSSLVSPFSSATAALPPSLNLTTPASTSQDASQCQPSPDFSHDRQLRLLLSQPIQPMMPGSCDARQPSEVSRTGRQVKYAQSQTVFQNPDAHPANSSSAPMPVLLMGQAVLHPSFPASQPSPLQPAQARQQPPQHYLQVQAPTSLHSEQQDSLLLSTYSQQPGTLGYPQPPPAQPQPLRPPRRVSSLSESSGLQQPPR
B2: mCLOCK (other, mouse, UniProt O08785 1-855, looked up)
chain: MVFTVSCSKMSSIVDRDDSSIFDGLVEEDDKDKAKRVSRNKSEKKRRDQFNVLIKELGSMLPGNARKMDKSTVLQKSIDFLRKHKETTAQSDASEIRQDWKPTFLSNEEFTQLMLEALDGFFLAIMTDGSIIYVSESVTSLLEHLPSDLVDQSIFNFIPEGEHSEVYKILSTHLLESDSLTPEYLKSKNQLEFCCHMLRGTIDPKEPSTYEYVRFIGNFKSLTSVSTSTHNGFEGTIQRTHRPSYEDRVCFVATVRLATPQFIKEMCTVEEPNEEFTSRHSLEWKFLFLDHRAPPIIGYLPFEVLGTSGYDYYHVDDLENLAKCHEHLMQYGKGKSCYYRFLTKGQQWIWLQTHYYITYHQWNSRPEFIVCTHTVVSYAEVRAERRRELGIEESLPETAADKSQDSGSDNRINTVSLKEALERFDHSPTPSASSRSSRKSSHTAVSDPSSTPTKIPTDTSTPPRQHLPAHEKMTQRRSSFSSQSINSQSVGPSLTQPAMSQAANLPIPQGMSQFQFSAQLGAMQHLKDQLEQRTRMIEANIHRQQEELRKIQEQLQMVHGQGLQMFLQQSNPGLNFGSVQLSSGNSNIQQLTPVNMQGQVVPANQVQSGHISTGQHMIQQQTLQSTSTQQSQQSVMSGHSQQTSLPSQTPSTLTAPLYNTMVISQPAAGSMVQIPSSMPQNSTQSATVTTFTQDRQIRFSQGQQLVTKLVTAPVACGAVMVPSTMLMGQVVTAYPTFATQQQQAQTLSVTQQQQQQQQQPPQQQQQQQQSSQEQQLPSVQQPAQAQLGQPPQQFLQTSRLLHGNPSTQLILSAAFPLQQSTFPPSHHQQHQPQQQQQLPRHRTDSLTDPSKVQPQ

Tests used:
[1] = target: CYC (Drosophila) (UniProt O61734); assay: cell-based or functional assay
Sequence of CYC (Drosophila) (O61734 whole entry): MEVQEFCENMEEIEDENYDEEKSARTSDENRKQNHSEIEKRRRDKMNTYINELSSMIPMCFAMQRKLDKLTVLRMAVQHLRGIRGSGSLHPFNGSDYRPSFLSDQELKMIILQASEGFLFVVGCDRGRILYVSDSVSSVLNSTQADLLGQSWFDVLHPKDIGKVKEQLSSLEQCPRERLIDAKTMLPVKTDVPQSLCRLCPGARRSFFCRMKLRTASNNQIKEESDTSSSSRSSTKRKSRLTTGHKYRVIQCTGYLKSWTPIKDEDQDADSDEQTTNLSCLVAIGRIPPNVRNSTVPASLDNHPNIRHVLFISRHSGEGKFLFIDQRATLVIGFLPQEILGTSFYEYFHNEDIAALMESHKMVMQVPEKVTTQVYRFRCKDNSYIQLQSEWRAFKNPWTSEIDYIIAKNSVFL

[2] = target: syrian hamster (sh)BMAL1 (syrian hamster, UniProt O88529 1-626); assay: cell-based or functional assay
Sequence of syrian hamster (sh)BMAL1 (O88529 whole entry): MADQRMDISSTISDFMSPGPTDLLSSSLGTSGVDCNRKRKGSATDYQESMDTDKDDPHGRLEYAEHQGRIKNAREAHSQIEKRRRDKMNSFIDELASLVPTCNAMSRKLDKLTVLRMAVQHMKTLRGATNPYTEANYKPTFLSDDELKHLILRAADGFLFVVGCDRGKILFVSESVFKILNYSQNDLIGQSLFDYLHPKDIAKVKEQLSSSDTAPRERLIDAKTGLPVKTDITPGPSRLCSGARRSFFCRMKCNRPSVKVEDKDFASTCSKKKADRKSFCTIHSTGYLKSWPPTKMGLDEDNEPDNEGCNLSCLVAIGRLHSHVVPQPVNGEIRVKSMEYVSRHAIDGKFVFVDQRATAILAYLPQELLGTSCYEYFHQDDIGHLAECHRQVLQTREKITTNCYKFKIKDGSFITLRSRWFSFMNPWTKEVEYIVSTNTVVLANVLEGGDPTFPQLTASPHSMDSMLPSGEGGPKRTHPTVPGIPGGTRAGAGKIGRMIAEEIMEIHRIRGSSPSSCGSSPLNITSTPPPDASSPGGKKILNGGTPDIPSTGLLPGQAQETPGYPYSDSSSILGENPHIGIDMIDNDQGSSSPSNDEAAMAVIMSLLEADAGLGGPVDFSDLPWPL

Molecule	transcriptional activity (per E box luciferase reporter, S2 cells) [1]	transcriptional activation (vasopressin promoter luciferase reporter, NIH3T3 cells) [2]	transcriptional activity (per E box luciferase reporter, S2 cells) [2]
dCLOCK (from UniProt O61735 1-1027)	265 fold	–	–
B1	–	37 fold increase	539 fold
B2	–	10 fold increase	1740 fold
